Measured values reported in the supplement of paper PMC10598134.
± gives the standard deviation.

Test: collision cross section of modified peptide (TIMS, N2, iRT-aligned); higher = larger / more extended gas-phase ion
Procedure, shortened: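 Synthetic peptide pools (~100 fmol/µL in 2% acetonitrile/0.1% formic acid, iRT standard spiked 1:40) were separated on a 120-min nanoflow C18 gradient at 60 °C. They were analysed on a timsTOF Pro/HT (dda-PASEF, nitrogen, ~2.4 mbar) and identified with MaxQuant. 1/K0 was calibrated with three reference ions and aligned run-wise to the median iRT peptide deviation. Collision cross section came from the Mason-Schamp equation, averaging 1–3 technical replicates of the most abundant feature per charge state.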

[1] = charge state: 2, modification: Hydroxyproline
[2] = charge state: 2, modification: Acetyl (K)
[3] = charge state: 3, modification: Acetyl (K)
[4] = charge state: 2, modification: Nitro (Y)
[5] = charge state: 2, modification: Citrullination (R)
[6] = charge state: 2, modification: Succinyl
[7] = charge state: 3, modification: Succinyl
[8] = charge state: 3, modification: Methyl (R)
[9] = charge state: 2, modification: Methyl (K)
[10] = charge state: 3, modification: Methyl (K)
[11] = charge state: 2, modification: Crotonyl

GLPGPPGPQGESR [_GLP(Hydroxyproline)GPPGPQGESR_]
collision cross section [1]: 363.77 ± 1.6 Å²

FDDTNPEKEEAK [_FDDTNPEK(Acetyl (K))EEAK_]
collision cross section [2]: 394.25 ± 1.3 Å² | collision cross section [3]: 440.01 ± 0.78 Å²

SVSSSSYR [_SVSSSSY(Nitro (Y))R_]
collision cross section [4]: 311.12 ± 0.16 Å²

PANEKATDDYHYEK [_PANEK(Malonyl)ATDDYHYEK_]
collision cross section (charge state: 3, modification: Malonyl): 498.89 ± 1.6 Å²

GGGYGGDRGGYGGDR [_GGGYGGDR(Citrullination (R))GGYGGDR_]
collision cross section [5]: 373.62 ± 7.7 Å²

ANLEKAQAELVGTADEATR [_ANLEK(Succinyl)AQAELVGTADEATR_]
collision cross section [6]: 479.08 ± 0.78 Å² | collision cross section [7]: 580.29 ± 0.37 Å²

DFDTALKHYDK [_DFDTALK(Succinyl)HYDK_]
collision cross section [6]: 404.59 ± 1.1 Å² | collision cross section [7]: 465.49 ± 2.9 Å²

ANEKTESSSAQQVAVSR [_ANEK(Acetyl (K))TESSSAQQVAVSR_]
collision cross section [2]: 433.42 ± 1.8 Å² | collision cross section [3]: 527.9 ± 0.37 Å²

YEQEHAAIQDKLFQVAK [_YEQEHAAIQDK(Butyryl)LFQVAK_]
collision cross section (charge state: 3, modification: Butyryl): 517.33 ± 1 Å²

GERGVPGER [_GERGVP(Hydroxyproline)GER_]
collision cross section [1]: 328.27 ± 0.79 Å² | collision cross section (charge state: 3, modification: Hydroxyproline): 402.04 Å²

SHLRHAIPSAER [_SHLR(Citrullination (R))HAIPSAER_]
collision cross section [5]: 388.58 ± 0.81 Å² | collision cross section (charge state: 3, modification: Citrullination (R)): 492.66 ± 4.6 Å²

AGQKLIDVNHYAK [_AGQK(GlyGly (K))LIDVNHYAK_]
collision cross section (charge state: 2, modification: GlyGly (K)): 433.04 ± 1.4 Å² | collision cross section (charge state: 3, modification: GlyGly (K)): 485.98 ± 1.6 Å²

PGPVGPPGSGGLK [_PGPVGPP(Hydroxyproline)GSGGLK_]
collision cross section [1]: 349.24 ± 3.9 Å²

DVNAAIAAIKTK [_DVNAAIAAIK(Succinyl)TK_]
collision cross section [6]: 407.52 ± 0.54 Å² | collision cross section [7]: 461.32 Å²

ITGKNQVTATK [_ITGK(Gluratylation)NQVTATK_]
collision cross section (charge state: 2, modification: Glutarylation): 369.78 ± 0.66 Å²

PANEKATDDYHYEK [_PANEK(Propionyl)ATDDYHYEK_]
collision cross section (charge state: 3, modification: Propionyl): 507.47 ± 0.5 Å²

LGNTISSLFGGGTTPDAK [_LGNTISSLFGGGT(HexNAc (ST))TPDAK_]
collision cross section (charge state: 2, modification: HexNAc (ST)): 471.52 Å²

TTGFYSGFSEVAEKR [_TTGFYSGFSEVAEK(Malonyl)R_]
collision cross section (charge state: 2, modification: Malonyl): 440.22 ± 1.2 Å²

LEKTIDDLEEK [_LEK(Succinyl)TIDDLEEK_]
collision cross section [6]: 408.25 ± 0.55 Å²

IPPTYQIR [_IPPTY(Nitro (Y))QIR_]
collision cross section [4]: 343.35 ± 0.72 Å²

SGRGGNFGFGDSR [_SGR(Methyl (R))GGNFGFGDSR_]
collision cross section [8]: 452.71 ± 3.1 Å²

SGNLTEDDKHNNAK [_SGNLTEDDK(Trimethyl (K))HNNAK_]
collision cross section (charge state: 2, modification: Trimethyl (K)): 419.32 ± 0.75 Å² | collision cross section (charge state: 3, modification: Trimethyl (K)): 469.66 ± 1.5 Å²

DYSVTANSK [_DY(Nitro (Y))SVTANSK_]
collision cross section [4]: 331.98 ± 0.55 Å²

GFCFITYTDEEPVKK [_GFCFITYTDEEPVK(Methyl (K))K_]
collision cross section [9]: 460.43 ± 0.33 Å² | collision cross section [10]: 513.09 ± 2.7 Å²

PSVGSQSNQAGQGKR [_PSVGSQSNQAGQGK(Formyl)R_]
collision cross section (charge state: 2, modification: Formyl): 402.96 ± 2 Å² | collision cross section (charge state: 3, modification: Formyl): 470.1 ± 1.8 Å²

ITASLCDLKSR [_ITASLCDLK(Biotin)SR_]
collision cross section (charge state: 2, modification: Biotin): 401.02 Å²

AGQKLIDVNHYAK [_AGQK(Dimethyl (K))LIDVNHYAK_]
collision cross section (charge state: 3, modification: Dimethyl (K)): 472.93 ± 1.2 Å²

HGVYNPNK [_HGVY(Phospho (Y))NPNK_]
collision cross section (charge state: 2, modification: Phospho (Y)): 346.37 ± 0.75 Å²

DAIHFYNKSLAEHR [_DAIHFYNK(Methyl (K))SLAEHR_]
collision cross section [9]: 441.67 Å² | collision cross section [10]: 502.11 ± 2.1 Å²

VETTVTSLKTK [_VETTVTSLK(Propionyl)TK_]
collision cross section (charge state: 2, modification: Propionyl): 382.91 ± 0.92 Å²

DSRGGGGNFGPGPGSNFR [_DSR(Methyl (R))GGGGNFGPGPGSNFR_]
collision cross section [8]: 480.39 ± 3.1 Å²

LQDVSGQLSSSKK [_LQDVSGQLSSSK(Crotonyl)K_]
collision cross section [11]: 402.23 ± 0.9 Å² | collision cross section (charge state: 3, modification: Crotonyl): 469.03 ± 3.7 Å²

SDSGKPYYYNSQTK [_SDSGK(Acetyl (K))PYYYNSQTK_]
collision cross section [2]: 419.63 ± 2 Å²

ASAISIKLGSSK [_ASAISIK(Butyryl)LGSSK_]
collision cross section (charge state: 2, modification: Butyryl): 375.24 ± 1.9 Å²

SGFGKFER [_SGFGK(Dimethyl (K))FER_]
collision cross section (charge state: 2, modification: Dimethyl (K)): 334.57 ± 1.1 Å²

LAEEENKAK [_LAEEENK(Crotonyl)AK_]
collision cross section [11]: 351.41 ± 1.1 Å²
